1 molecule from paper PMC12730105, “The Interaction Between PGD2 and G6PD6 Is Involved in Aromatic Amino Acid Synthesis” (Biology, 2025) can be followed below.

The target of this test is T1, MBP-G6PD6 (pMAL-c5x) (Arabidopsis thaliana, UniProt Q9FJI5 1-515).
T1 construct: glucose-6-phosphate dehydrogenase 6 (G6PD6), Arabidopsis thaliana, At5g40760, full-length ORF in pMAL-c5x; pMAL-c5x normally places MBP at the N-terminus; source: E. coli BL21 (DE3), purified (amylose resin)
T1 sequence (looked up): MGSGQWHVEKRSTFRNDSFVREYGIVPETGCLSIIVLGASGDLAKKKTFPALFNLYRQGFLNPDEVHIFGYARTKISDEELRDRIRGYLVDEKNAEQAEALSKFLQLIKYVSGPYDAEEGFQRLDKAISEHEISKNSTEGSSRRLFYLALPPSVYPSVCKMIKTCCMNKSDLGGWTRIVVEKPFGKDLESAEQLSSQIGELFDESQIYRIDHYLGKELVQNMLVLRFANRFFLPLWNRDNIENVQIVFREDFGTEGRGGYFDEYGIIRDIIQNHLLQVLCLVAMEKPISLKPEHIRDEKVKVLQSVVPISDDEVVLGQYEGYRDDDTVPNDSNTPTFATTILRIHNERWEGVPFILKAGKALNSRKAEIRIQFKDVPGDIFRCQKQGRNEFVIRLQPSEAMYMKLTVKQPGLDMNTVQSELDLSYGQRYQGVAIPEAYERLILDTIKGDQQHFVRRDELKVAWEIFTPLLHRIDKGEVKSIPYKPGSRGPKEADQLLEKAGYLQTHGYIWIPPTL
In words: pull-down; purified PGD2-HIS immobilised on Mag-Beads His-Tag resin (4 °C, 1 h), incubated with MBP-G6PD6 at 4 °C for 3 h, three washes, Western blot (the results speak of immobilised MBP-G6PD6). As to conditions: both partners purified. In general terms: A western blot detects proteins with antibodies after separation by electrophoresis.

B1: PGD2-HIS (pET28a-PGD2) (enzyme, Arabidopsis thaliana, UniProt Q9FWA3 1-486, looked up)
chain: MAVQPTRIGLAGLAVMGQNLALNIAEKGFPISVYNRTTSKVDETVERAKKEGNLPLYGFHDPESFVKSIQKPRVIIMLVKAGSPVDQTIKTLSAYLEKGDCIVDGGNEWYENTERREKAVAENGFLYLGMGVSGGEEGARNGPSMMPGGSYEAYKNIEDIVLKVAAQVRDSGPCVTYIGKGGSGNFVKMVHNGIEYGDMQLIAEAYDVLKSVGKLSNEELHSVFSDWNKGELESFLVEITADIFGIKDDKGDGHLVDKVLDKTGMKGTGKWTVQQAAELSVPAPTIESSLDARFLSGLKDERVQAAKVFKAGGFGDILTDQKVDKKQLVDDVRKALYASKICSYAQGMNLIRAKSIEKGWGLKLGELARIWKGGCIIRAIFLDRIKQAYDRNAELANLLVDPEFAKEIIERQSAWRRVVCLAINSGISTPGMSASLAYFDSYRRERLPANLVQAQRDYFGAHTYERTDVEGSFHTEWFKIARQSKI
notes: Printed as PGD2-HIS in the methods and HIS-PGD2 in the results; also called HIS-PGD2; source: E. coli BL21 (DE3), purified (His60 Ni Superflow resin)
Take B1: the binding result is “binds”.
